{"source": "patent US20040096894A1", "about": "“Crystal structures of P- selectin, P- and E-selectin complexes, and uses thereof” (priority 2000, published 2004)", "origin": "cited, not measured here", "molecular_target": "T1, full-length neutrophil PSGL-1 (Homo sapiens, UniProt Q14242)", "T1 construct": "to full-length neutrophil PSGL-1; host or cells: neutrophils", "T1 sequence (Q14242 42-412)": "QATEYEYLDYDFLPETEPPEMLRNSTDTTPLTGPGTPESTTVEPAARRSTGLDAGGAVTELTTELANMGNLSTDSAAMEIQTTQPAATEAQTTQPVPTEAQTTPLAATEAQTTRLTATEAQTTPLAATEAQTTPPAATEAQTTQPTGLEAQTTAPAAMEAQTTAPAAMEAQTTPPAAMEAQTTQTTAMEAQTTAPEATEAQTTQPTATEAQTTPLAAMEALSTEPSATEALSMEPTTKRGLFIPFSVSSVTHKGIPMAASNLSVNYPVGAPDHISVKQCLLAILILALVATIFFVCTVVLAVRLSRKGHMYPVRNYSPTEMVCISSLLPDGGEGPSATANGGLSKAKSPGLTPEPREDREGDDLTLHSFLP", "conditions": "previously determined values (Mehta et al., 1998); read-out: KD for binding to full-length neutrophil PSGL-1", "data": [{"molecule": "soluble P-selectin: Soluble P-selectin of the literature study (Mehta et al., 1998) (protein, UniProt P16109 42-771, looked up, extracellular domain) extracellular domain: WTYHYSTKAYSWNISRKYCQNRYTDLVAIQNKNEIDYLNKVLPYYSSYYWIGIRKNNKTWTWVGTKKALTNEAENWADNEPNNKRNNEDCVEIYIKSPSAPGKWNDEHCLKKKHALCYTASCQDMSCSKQGECLETIGNYTCSCYPGFYGPECEYVRECGELELPQHVLMNCSHPLGNFSFNSQCSFHCTDGYQVNGPSKLECLASGIWTNKPPQCLAAQCPPLKIPERGNMTCLHSAKAFQHQSSCSFSCEEGFALVGPEVVQCTASGVWTAPAPVCKAVQCQHLEAPSEGTMDCVHPLTAFAYGSSCKFECQPGYRVRGLDMLRCIDSGHWSAPLPTCEAISCEPLESPVHGSMDCSPSLRAFQYDTNCSFRCAEGFMLRGADIVRCDNLGQWTAPAPVCQALQCQDLPVPNEARVNCSHPFGAFRYQSVCSFTCNEGLLLVGASVLQCLATGNWNSVPPECQAIPCTPLLSPQNGTMTCVQPLGSSSYKSTCQFICDEGYSLSGPERLDCTRSGRWTDSPPMCEAIKCPELFAPEQGSLDCSDTRGEFNVGSTCHFSCDNGFKLEGPNNVECTTSGRWSATPPTCKGIASLPTPGVQCPALTTPGQGTMYCRHHPGTFGFNTTCYFGCNAGFTLIGDSTLSCRPSGQWTAVTPACRAVKCSELHVNKPIAMNCSNLWGNFSYGSICSFHCLEGQLLNGSAQTACQENGHWSTTVPTCQAGPLTIQEA", "values": [{"measurement": "Kd", "result": 322, "unit": "nM"}]}]}
